Laboratory results from patent US20170281720A1 (published 2017).
Bridges are numbered along the chain shown (N, C = ends). [ ]: non-standard residue; d: D form. The star is where a group is joined. 5‑TAMRA = CN(C)c1ccc2c(-c3ccc(C(=O)*)cc3C(=O)[O-])c3ccc(N(C)C)cc3[o+]c2c1; NMeW = CN[C@@H](Cc1c[nH]c2ccccc12)C(=O)O; NMeY = CN[C@@H](Cc1ccc(O)cc1)C(=O)O; Palmitoyl = CCCCCCCCCCCCCCCC(=O)*; R8 = C=CCCCCCC[C@@](C)(N)C(=O)O; Cba = N[C@@H](CC1CCC1)C(=O)O; hLeu = CC(C)CC[C@H](N)C(=O)O; S5 = C=CCCC[C@](C)(N)C(=O)O; Decac = not defined here; Napac = not defined here; Nle = CCCC[C@H](N)C(=O)O; βAla = NCCC(=O)O

Assays:
MDM2 (In-house, 41 kD) = target: T1, MDM2 (In-house, 41 kD) (UniProt Q00987 1-125, limits assumed); experiment: competitive fluorescence polarization on MDM2 against FAM-labeled linear peptide; grade, scale in paragraph 462
T1 construct: Only 'In-house, 41 kD' is said of the protein used in the fluorescence polarization assays; also called HDM2
T1 sequence (Q00987 1-125 limits assumed): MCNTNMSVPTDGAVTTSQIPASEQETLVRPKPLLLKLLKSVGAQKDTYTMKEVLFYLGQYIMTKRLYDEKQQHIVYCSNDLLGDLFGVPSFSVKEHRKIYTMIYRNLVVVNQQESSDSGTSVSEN

MDMX (In-house, 40 kD) [1] = target: T2, MDMX (In-house, 40 kD) (UniProt O15151 1-120, limits assumed); experiment: competitive fluorescence polarization on MDMX against FAM-labeled linear peptide; grade, scale in paragraph 462
T2 construct: Only 'In-house, 40 kD' is said of the protein used in the fluorescence polarization assays; also called MDM4
T2 sequence (looked up): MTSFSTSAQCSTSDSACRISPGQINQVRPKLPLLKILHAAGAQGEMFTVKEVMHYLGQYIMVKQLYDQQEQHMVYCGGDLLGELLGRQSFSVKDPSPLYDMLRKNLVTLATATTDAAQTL

MDMX (In-house, 40 kD) [2] = target: T3, MDMX (In-house, 40 kD) (UniProt O15151 1-120, limits assumed); experiment: FP competition on MDMX vs FAM-labeled linear peptide; graded Ki, + = >1000 nM
T3 construct: Construct not described beyond 'In-house, 40 kD'; also called MDM4
T3 sequence (looked up): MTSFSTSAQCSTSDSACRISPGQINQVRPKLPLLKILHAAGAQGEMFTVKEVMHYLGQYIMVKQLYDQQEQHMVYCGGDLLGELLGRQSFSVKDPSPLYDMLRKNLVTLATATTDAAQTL

MDMX (In-house, 40 kD) [3] = target: T3, MDMX (In-house, 40 kD); experiment: FP competition on MDMX vs FAM-labeled linear peptide; graded IC50, + = >1000 nM
MDMX (In-house, 40 kD) [4] = target: T4, MDMX (In-house, 40 kD) (UniProt O15151 1-120, limits assumed); experiment: IC50 (MDMX) grade; competitive FP vs FAM-labeled linear peptide; + = >1000 nM
T4 construct: The construct used is unknown; also called MDM4
T4 sequence (looked up): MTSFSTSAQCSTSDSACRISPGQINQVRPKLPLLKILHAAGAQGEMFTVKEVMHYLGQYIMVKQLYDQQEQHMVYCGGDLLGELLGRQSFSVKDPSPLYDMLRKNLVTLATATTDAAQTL

MDMX (In-house, 40 kD) [5] = target: T4, MDMX (In-house, 40 kD); experiment: Ki (MDMX) grade; competitive FP vs FAM-labeled linear peptide; + = >1000 nM
MDMX (In-house, 40 kD) [6] = target: T5, MDMX (In-house, 40 kD) (UniProt O15151 1-120, limits assumed); experiment: competitive FP vs FAM labeled linear peptide; column Ki (MDMX); + = >1000 nM by the table's scale
T5 construct: Only 'MDMX (In-house, 40 kD)' is said of the protein in the FP assays; also called MDM4
T5 sequence (looked up): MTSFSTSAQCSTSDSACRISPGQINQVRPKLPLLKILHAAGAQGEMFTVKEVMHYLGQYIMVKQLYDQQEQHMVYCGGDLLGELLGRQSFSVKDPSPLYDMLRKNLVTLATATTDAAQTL

MDMX (In-house, 40 kD) [7] = target: T5, MDMX (In-house, 40 kD); experiment: competitive FP vs FAM labeled linear peptide; column IC50 (MDMX); + = >1000 nM by the table's scale

B1: SP609, Ac-LTF$r8EYWAAibL$AAAAAa-NH2 (peptide)
peptide: LTFAEYWAXLAAAAAAA
modifications: not fully specified; N-terminal acetyl; $r8 (alpha-Me R8-octenyl-alanine) at 4 crosslinked to $ (alpha-Me S5-pentenyl-alanine) at 11; Aib (2-aminoisobutyric acid) at 9; D-alanine at 17; C-terminal amide
notes: stapled peptidomimetic macrocycle
Q: Which Ki (MDM2 (In-house, 41 kD)) does the source give for B1 here?
A: ≤ 10 nM

B2: SP612, Ac-LTF$r8EYWACitL$AAAAAa-NH2 (peptide)
peptide: LTFAEYWAXLAAAAAAA
modifications: not fully specified; N-terminal acetyl; $r8 (alpha-Me R8-octenyl-alanine) at 4 crosslinked to $ (alpha-Me S5-pentenyl-alanine) at 11; Cit (citrulline) at 9; D-alanine at 17; C-terminal amide
notes: as for B1
Q: For B2, which Ki (MDM2 (In-house, 41 kD)) is on record?
A: ≤ 10 nM

B3: SP433, Ac-LTF$r8EYWCou7QCba$SAA-NH2 (peptide)
peptide: LTFAEYWXQAASAA
modifications: not fully specified; N-terminal acetyl; $r8 (alpha-Me R8-octenyl-alanine) at 4 crosslinked to $ (alpha-Me S5-pentenyl-alanine) at 11; Cou7 at 8 (structure given only as a drawing); Cba (cyclobutyl alanine) at 10; C-terminal amide
notes: as for B1
Q: How did the Ki (MDM2 (In-house, 41 kD)) turn out when B3 was run?
A: ≤ 10 nM

B4: SP686, 5-TAMRA-BaLTF$r8EYWAQCba$SAA-NH2 (peptide)
peptide: {5‑TAMRA}-[βAla]LTF[R8]EYWAQ[Cba][S5]SAA-NH2
modifications: staple 5-12
SMILES: CC(C)C[C@H](NC(=O)CCNC(=O)c1ccc(-c2c3ccc(N(C)C)cc3[o+]c3cc(N(C)C)ccc23)c(C(=O)[O-])c1)C(=O)N[C@H](C(=O)N[C@@H](Cc1ccccc1)C(=O)N[C@]1(C)CCCCCCC=CCCC[C@@](C)(C(=O)N[C@@H](CO)C(=O)N[C@@H](C)C(=O)N[C@@H](C)C(N)=O)NC(=O)[C@H](CC2CCC2)NC(=O)[C@H](CCC(N)=O)NC(=O)[C@H](C)NC(=O)[C@H](Cc2c[nH]c3ccccc23)NC(=O)[C@H](Cc2ccc(O)cc2)NC(=O)[C@H](CCC(=O)O)NC1=O)[C@@H](C)O
notes: stapled peptidomimetic macrocycle with fluorescent label
Q: Which Ki (MDM2 (In-house, 41 kD)) does the source give for B4 here?
A: ≤ 10 nM

Q: For Ac-LTF[R8]EYWAQ[Cba][S5]S-NH2 (staple 4-11, stapled peptidomimetic macrocycle) [SP595, Ac-LTF$r8EYWAQCba$S-NH2], which Ki (MDM2 (In-house, 41 kD)) is on record?
A: > 1000 nM

B5: SP712, Ac-LTF$r8HYWAQCba$SAA-NH2 (iso2) (peptide)
peptide: Ac-LTF[R8]HYWAQ[Cba][S5]SAA-NH2
modifications: staple 4-11; also: single isomer iso2
notes: stapled peptidomimetic macrocycle, isomer iso2
Q: Which Ki (MDM2 (In-house, 41 kD)) does the source give for B5 here?
A: ≤ 10 nM

Q: And the Ki (MDMX (In-house, 40 kD) [1])?
A: ≤ 10 nM

B6: SP713, Ac-LTF$r8SYWAQCba$SAA-NH2 (iso2) (peptide)
peptide: Ac-LTF[R8]SYWAQ[Cba][S5]SAA-NH2
modifications: staple 4-11; also: single isomer iso2
notes: as for B5
Q: Which Ki (MDM2 (In-house, 41 kD)) does the source give for B6 here?
A: ≤ 10 nM

Q: And the Ki (MDMX (In-house, 40 kD) [1])?
A: ≤ 10 nM

B7: SP716, Ac-LTF$r8EYWAQCba$AAA-NH2 (iso2) (peptide)
peptide: Ac-LTF[R8]EYWAQ[Cba][S5]AAA-NH2
modifications: staple 4-11; not fully specified
notes: as for B5
Q: With B7 as the binder, how does the Ki (MDM2 (In-house, 41 kD)) read?
A: ≤ 10 nM

Q: What about the Ki (MDMX (In-house, 40 kD) [1]) of the same binder?
A: ≤ 10 nM

Q: Which Ki (MDMX (In-house, 40 kD) [2]) does the source give for Palmitoyl-ETF[R8]EYWAQ[Cba][S5]SAA-NH2 (staple 4-11) [SP250, Pam-ETF$r8EYWAQCba$SAA-NH2] here?
A: > 1000 nM

Q: And the IC50 (MDMX (In-house, 40 kD) [3])?
A: > 1000 nM

Q: Which Ki (MDMX (In-house, 40 kD) [2]) does the source give for Ac-LTA[R8]EYWAQ[Cba][S5]SAA-NH2 (staple 4-11) [SP252, Ac-LTA$r8EYWAQCba$SAA-NH2] here?
A: > 1000 nM

Q: And the IC50 (MDMX (In-house, 40 kD) [3])?
A: > 1000 nM

B8: SP281 (peptide)
peptide: Napac-LTF[R8]EYWAQ[hLeu][S5]SAA-NH2
modifications: staple 4-11; reading uncertain
notes: Peptidomimetic macrocycle (stapled p53-derived peptide)
Q: B8 was tested. Which IC50 (MDMX (In-house, 40 kD) [4]) did it give?
A: > 1000 nM

B9: SP282 (peptide)
peptide: Decac-LTF[R8]EYWAQ[hLeu][S5]SAA-NH2
modifications: staple 4-11; reading uncertain
notes: as for B8
Q: What does the source list for B9?
A: Ki (MDMX (In-house, 40 kD) [5]): > 1000 nM; IC50 (MDMX (In-house, 40 kD) [4]): > 1000 nM

B10: SP323 (peptide)
peptide: Ac-LTF[R8]AYWAQ[hLeu][S5]AA[Nle]AA-NH2
modifications: staple 4-11
notes: as for B8
Q: With B10 as the binder, how does the IC50 (MDMX (In-house, 40 kD) [4]) read?
A: > 1000 nM

B11: SP384 (peptide)
peptide: Ac-LTF[R8]A[NMeY]WAQL[S5]AA[Nle]A-NH2
modifications: staple 4-11; not fully specified
notes: Stapled peptidomimetic macrocycle, single isomer iso2; also called Ac-LTF$r8ANmYWAQL$AANleA-NH2
Q: Which Ki (MDMX (In-house, 40 kD) [6]) does the source give for B11 here?
A: > 1000 nM

Q: And the IC50 (MDMX (In-house, 40 kD) [7])?
A: > 1000 nM

B12: SP386 (peptide)
peptide: Ac-LTF[R8]AY[NMeW]AQL[S5]AA[Nle]A-NH2
modifications: staple 4-11; not fully specified
notes: Stapled peptidomimetic macrocycle, single isomer iso2; also called Ac-LTF$r8AYNmWAQL$AANleA-NH2
Q: Which Ki (MDMX (In-house, 40 kD) [6]) does the source give for B12 here?
A: > 1000 nM

Q: And the IC50 (MDMX (In-house, 40 kD) [7])?
A: > 1000 nM
